One block for each binder: values may come before it.
Experiments:
[1] = target: T1, human CD3 epsilon 1-26_Fc fusion protein (human); assay: SPR, CD3 epsilon 1-26 Fc coupled to the chip, antibody injected
T1 construct: also called human CD3 1-26_Fc fusion protein

[2] = target: T2, F3 (peptide-Fc fusion derived from the extracellular domain of human CD38) (human, UniProt P0DOX5 223-449 = IgG part); assay: SPR, SAR650984 on the chip, peptide-Fc fusion injected
T2 construct: As F1; by count CD38 residues 69-81; also called F3 construct

[3] = target: T3, F6 (peptide-Fc fusion derived from the extracellular domain of human CD38) (human, UniProt P0DOX5 195-449 = IgG part); assay: SPR
T3 construct: As F1; by count CD38 residues 108-120 (holds M110)

[4] = target: T4, F18 (peptide-Fc fusion derived from the extracellular domain of human CD38) (human, UniProt P0DOX5 223-449 = IgG part); assay: SPR, humanized 9G7 immobilized on the chip, peptide-Fc fusion injected
T4 construct: As F1; by count CD38 residues 264-276

[5] = target: T5, F15 (peptide-Fc fusion derived from the extracellular domain of human CD38) (human, UniProt P0DOX5 223-449 = IgG part); assay: as above
T5 construct: As F1; by count CD38 residues 225-237

[6] = target: T6, F14 (peptide-Fc fusion derived from the extracellular domain of human CD38) (human, UniProt P0DOX5 223-449 = IgG part); assay: as above
T6 construct: As F1; by count CD38 residues 212-224

[7] = target: T7, F12 (peptide-Fc fusion derived from the extracellular domain of human CD38) (human, UniProt P0DOX5 223-449 = IgG part); assay: as above
T7 construct: As F1; by count CD38 residues 186-198

[8] = target: T8, F19 (peptide-Fc fusion derived from the extracellular domain of human CD38) (human, UniProt P0DOX5 223-449 = IgG part); assay: as above
T8 construct: As F1; by count CD38 residues 277-289

[9] = target: T9, F11 (peptide-Fc fusion derived from the extracellular domain of human CD38) (human, UniProt P0DOX5 223-449 = IgG part); assay: as above
T9 construct: As F1; by count CD38 residues 173-185

[10] = target: T10, F10 (peptide-Fc fusion derived from the extracellular domain of human CD38) (human, UniProt P0DOX5 223-449 = IgG part); assay: as above
T10 construct: As F1; by count CD38 residues 160-172

[11] = target: T11, F16 (peptide-Fc fusion derived from the extracellular domain of human CD38) (human, UniProt P0DOX5 223-449 = IgG part); assay: as above
T11 construct: As F1; by count CD38 residues 238-250

[12] = target: T12, F17 (peptide-Fc fusion derived from the extracellular domain of human CD38) (human, UniProt P0DOX5 223-449 = IgG part); assay: SPR, antibody immobilized, peptide-Fc fusion injected
T12 construct: As F1; by count CD38 residues 251-263

[13] = target: T13, F8 (peptide-Fc fusion derived from the extracellular domain of human CD38) (human, UniProt P0DOX5 223-449 = IgG part); assay: as above
T13 construct: As F1; by count CD38 residues 134-146

[14] = target: T14, F9 (peptide-Fc fusion derived from the extracellular domain of human CD38) (human, UniProt P0DOX5 223-449 = IgG part); assay: as above
T14 construct: As F1; by count CD38 residues 147-159

[15] = target: T15, F7 (peptide-Fc fusion derived from the extracellular domain of human CD38) (human, UniProt P0DOX5 223-449 = IgG part); assay: as above
T15 construct: As F1; by count CD38 residues 121-133

[16] = target: T16, F5 (peptide-Fc fusion derived from the extracellular domain of human CD38) (human, UniProt P0DOX5 223-449 = IgG part); assay: as above
T16 construct: As F1; by count CD38 residues 95-107

[17] = target: T17, F13 (peptide-Fc fusion derived from the extracellular domain of human CD38) (human, UniProt P0DOX5 223-449 = IgG part); assay: as above
T17 construct: As F1; by count CD38 residues 199-211

[18] = target: T18, F2 (peptide-Fc fusion derived from the extracellular domain of human CD38) (human, UniProt P0DOX5 223-449 = IgG part); assay: as above
T18 construct: As F1; by count CD38 residues 56-68

[19] = target: T2, F3 (peptide-Fc fusion derived from the …); assay: as above
[20] = target: T19, F20 (peptide-Fc fusion derived from the extracellular domain of human CD38) (human, UniProt P0DOX5 223-449 = IgG part); assay: as above
T19 construct: Final peptide of 11 amino acids, else as F1; by count CD38 residues 290-300

[21] = target: T20, F4 (peptide-Fc fusion derived from the extracellular domain of human CD38) (human, UniProt P0DOX5 223-449 = IgG part); assay: as above
T20 construct: As F1; by count CD38 residues 82-94

[22] = target: T21, F1 (peptide-Fc fusion derived from the extracellular domain of human CD38) (human, UniProt P0DOX5 223-449 = IgG part); assay: as above
T21 construct: 13-residue peptide fused to human IgG1 Fc (CH2-CH3) with an Ala-Ser linker; by count CD38 residues 43-55

Kd [1]: 18 nM
B1: BEAT CD38-9G7best-fit/CD3(SP34-Kappa2) antibody (bispecific antibody)
heavy: QVTLKESGPTLVKPTQTLTLTCTFSGLSLSTSGKGVGWIRQPPGKALEWLAHIWWDDDKRYNPALKSRLTITKDTSKNQVVLTMTNMDPVDTATYYCARIELGRSYVMDYWGQGTLVTVSSASTKGPSVFPLAPSSKSTSGGTAALGCLVKDYFPEPVTVSWNSGALTSGVHTFPAVLQSSGLYSLSSVVTVPSSSLGTQTYICNVNHKPSNTKVDKKVEPKSCDKTHTCPPCPAPEAAGGPSVFLFPPKPKDTLMISRTPEVTCVVVDVSHEDPEVQFKWYVDGVEVHNAKTKPREEQYNSTFRVVSVLTVLHQDWLNGKEYKCKVSNKALPAPIEKTISKTKGQPREPAVYTLPPSREEMTKNQVKLVCLVTGFYPSDIAVEWESSGQPENNYYTTPPMLDSDGSFSLVSWLNVDKSRWQQGNIFSCSVMHEALHNRFTQKSLSLSPGK
light: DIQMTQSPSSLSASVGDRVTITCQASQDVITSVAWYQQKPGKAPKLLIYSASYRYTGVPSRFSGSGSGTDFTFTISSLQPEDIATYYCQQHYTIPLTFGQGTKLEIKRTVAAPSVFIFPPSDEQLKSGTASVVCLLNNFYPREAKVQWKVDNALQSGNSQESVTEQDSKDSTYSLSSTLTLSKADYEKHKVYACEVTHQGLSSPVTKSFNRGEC
chain: EVQLVESGGGLVQPGGSLRLSCAASGFTFNTYAMNWVRQAPGKGLEWVARIRSKYNNYATYYADSVKGRFTISRDDSKNTLYLQMNSLRAEDTAVYYCVRHGNFGNSYVSYFAYWGQGTTVTVSSGGGGSGGGGSGGGGSEIVVTQSPATLSVSPGERATLSCRSSTGAVTAANYANWVQEKPGQAFRGLIGGANKRAPGVPARFSGSLSGDEATLTISSLQSEDFAVYYCALFYSNLWVFGQGTKLEIKGGGGTDKTHTCPPCPAPEAAGGPSVFLFPPKPKDTLMISRTPEVTCVVVDVSHEDPEVKFNWYVDGVEVHNAKTKPREEQYNSTYRVVSVLTVLHQDWLNGKEYKCKVSNKALPAPIEKTISKAKGQPREPEVATFPPSRDELTKNQVTLVCLVTGFYPSDIAVEWESNGQPENNYKTDPPLLESQGSFALSSRLRVDKSRWQQGNVFSCSVMHEALHNHYTQKSLSLSPG
notes: Third chain is the anti-CD3 epsilon scFv BEAT heavy chain with humanized SP34 VH5/VL32; also called 9G7xSP34(GV2)

binding result [2]: no binding (tested: not printed)
binding result [3]: binds
B2: SAR650984 antibody (antibody, human IgG1, kappa, V domains shown)
VH: QVQLVQSGAEVAKPGTSVKLSCKASGYTFTDYWMQWVKQRPGQGLEWIGTIYPGDGDTGYAQKFQGKATLTADKSSKTVYMHLSSLASEDSAVYYCARGDYYGSNSLDYWGQGTSVTVSS
VL: DIVMTQSHLSMSTSLGDPVSITCKASQDVSTVVAWYQQKPGQSPRRLIYSASYRYIGVPDRFTGSGAGTDFTFTISSVQAEDLAVYYCQQHYSPPYTFGGGTKLEIKR
notes: also called humanized SAR650984 antibody

binding result [4]: no binding (tested: 15 nM)
binding result [5]: no binding (tested: 15 nM)
binding result [6]: no binding (tested: 15 nM)
binding result [7]: no binding (tested: 15 nM)
binding result [8]: no binding (tested: 15 nM)
binding result [9]: no binding (tested: 15 nM)
binding result [10]: no binding (tested: 15 nM)
binding result [11]: no binding (tested: 15 nM)
binding result [12]: no binding (tested: 15 nM; 200 nM)
binding result [13]: no binding (tested: 15 nM; 200 nM)
binding result [14]: no binding (tested: 15 nM; 200 nM)
binding result [15]: no binding (tested: 15 nM; 200 nM)
binding result [16]: no binding (tested: 15 nM; 200 nM)
binding result [17]: no binding (tested: 15 nM; 200 nM)
binding result [18]: no binding (tested: 15 nM; 200 nM)
binding result [19]: no binding (tested: 15 nM; 200 nM)
binding result [20]: no binding (tested: 15 nM; 200 nM)
binding result [21]: no binding (tested: 15 nM; 200 nM)
binding result [22]: no binding (tested: 15 nM; 200 nM)
B3: humanized 9G7 antibody (best-fit version) as used in Example 10 (antibody, human IgG1, kappa, V domains shown)
VH: QVTLKESGPTLVKPTQTLTLTCTFSGLSLSTSGKGVGWIRQPPGKALEWLAHIWWDDDKRYNPALKSRLTITKDTSKNQVVLTMTNMDPVDTATYYCARIELGRSYVMDYWGQGTLVTVSS
VL: DIQMTQSPSSLSASVGDRVTITCQASQDVITSVAWFQQKPGKAPKLLIYSASYRYTGVPSRFSGSGSGTDFTFTISSLQPEDIATYYCQQHYTIPLTFGQGTKLEIKR
notes: also called h9G7

— US20190135918A1 (ICHNOS SCIENCES, published 2019)
